Where “and” joins values, the source holds several entries; their conditions need not be identical. Equal values may be shown once.
Target: T1, recombinant human Apaf-1(1-591AA)-His (human, UniProt O14727 1-591)
T1 sequence (looked up): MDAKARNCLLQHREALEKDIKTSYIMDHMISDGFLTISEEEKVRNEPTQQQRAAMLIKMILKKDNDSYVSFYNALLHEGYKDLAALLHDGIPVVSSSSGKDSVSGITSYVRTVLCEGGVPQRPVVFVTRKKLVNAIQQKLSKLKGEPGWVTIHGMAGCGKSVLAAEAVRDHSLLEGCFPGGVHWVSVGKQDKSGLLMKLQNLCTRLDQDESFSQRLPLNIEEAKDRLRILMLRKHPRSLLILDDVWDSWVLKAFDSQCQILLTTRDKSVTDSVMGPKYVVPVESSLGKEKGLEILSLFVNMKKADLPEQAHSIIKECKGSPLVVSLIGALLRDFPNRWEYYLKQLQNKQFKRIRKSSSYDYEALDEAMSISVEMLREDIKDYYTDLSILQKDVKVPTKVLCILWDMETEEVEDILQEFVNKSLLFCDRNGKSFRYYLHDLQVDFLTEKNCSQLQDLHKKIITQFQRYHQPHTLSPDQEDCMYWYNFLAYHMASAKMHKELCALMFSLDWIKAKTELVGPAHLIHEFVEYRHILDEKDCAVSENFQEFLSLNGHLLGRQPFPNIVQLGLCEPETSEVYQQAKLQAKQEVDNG
Assay: SEC

stoichiometry N: 1.8 molecules of caspase-4 (CARD) for each Apaf (1-591) heptamer and 2.1 molecules of caspase-4 (CARD) for each Apaf (1-591) heptamer
B1: recombinant human caspase-4 (CARD)-Fc-HA (Fc fusion, UniProt P49662 1-91, looked up)
chain: MAEGNHRKKPLKVLESLGKDFLTGVLDNLVEQNVLNWKEEEKKKYYDAKTEDKVRVMADSMQEKQRMAGQMLLQTFFNIDQISPNKKAHPN
